Results reported in patent US5162203A, “Methods of measuring isozymes and isozyme classes of alcohol dehydrogenase” (President and Fellows of Harvard College, priority 1989, dated 1992).
Values joined by “and” are separate entries in the source; they are usually repeats but may differ in a detail not shown here. Identical values can stand only once.

B1: Class II ADH: human liver Class II alcohol dehydrogenase (protein, UniProt P08319 1-380, looked up)
All-trans-retinol …: MGTKGKVIKCKAAIAWEAGKPLCIEEVEVAPPKAHEVRIQIIATSLCHTDATVIDSKFEGLAFPVIVGHEAAGIVESIGPGVTNVKPGDKVIPLYAPLCRKCKFCLSPLTNLCGKISNLKSPASDQQLMEDKTSRFTCKGKPVYHFFGTSTFSQYTVVSDINLAKIDDDANLERVCLLGCGFSTGYGAAINNAKVTPGSTCAVFGLGGVGLSAVMGCKAAGASRIIGIDINSEKFVKAKALGATDCLNPRDLHKPIQEVIIELTKGGVDFALDCAGGSETMKAALDCTTAGWGSCTFIGVAAGSKGLTIFPEELIIGRTINGTFFGGWKSVDSIPKLVTDYKNKKFNLDALVTHTLPFDKISEAFDLMNQGKSVRTILIF
B2: γ1γ1: Class I human ADH isozyme, γ1 homodimer (protein, UniProt P00326 2-375, looked up)
Alcohol dehydrogenase 1C: STAGKVIKCKAAVLWELKKPFSIEEVEVAPPKAHEVRIKMVAAGICRSDEHVVSGNLVTPLPVILGHEAAGIVESVGEGVTTVKPGDKVIPLFTPQCGKCRICKNPESNYCLKNDLGNPRGTLQDGTRRFTCSGKPIHHFVGVSTFSQYTVVDENAVAKIDAASPLEKVCLIGCGFSTGYGSAVKVAKVTPGSTCAVFGLGGVGLSVVMGCKAAGAARIIAVDINKDKFAKAKELGATECINPQDYKKPIQEVLKEMTDGGVDFSFEVIGRLDTMMASLLCCHEACGTSVIVGVPPDSQNLSINPMLLLTGRTWKGAIFGGFKSKESVPKLVADFMAKKFSLDALITNILPFEKINEGFDLLRSGKSIRTVLTF
modifications: homodimer
notes: Class I human ADH isozyme, γ1 homodimer
B3: β1 β1: Class I human ADH isozyme, β1 homodimer (protein, UniProt P00325 2-375, looked up)
All-trans-retinol …: STAGKVIKCKAAVLWEVKKPFSIEDVEVAPPKAYEVRIKMVAVGICHTDDHVVSGNLVTPLPVILGHEAAGIVESVGEGVTTVKPGDKVIPLFTPQCGKCRVCKNPESNYCLKNDLGNPRGTLQDGTRRFTCRGKPIHHFLGTSTFSQYTVVDENAVAKIDAASPLEKVCLIGCGFSTGYGSAVNVAKVTPGSTCAVFGLGGVGLSAVMGCKAAGAARIIAVDINKDKFAKAKELGATECINPQDYKKPIQEVLKEMTDGGVDFSFEVIGRLDTMMASLLCCHEACGTSVIVGVPPASQNLSINPMLLLTGRTWKGAVYGGFKSKEGIPKLVADFMAKKFSLDALITHVLPFEKINEGFDLLHSGKSIRTVLTF
modifications: homodimer
notes: Class I human ADH isozyme, β1 homodimer

Tests used:
[1] = Reconstitution of purified ADH in inactive diluted human serum, substrate IIA; assay type: biochemical; conditions: Class II, 50-fold diluted serum, listed as II
Protocol: The ADH isozymes employed were electrophoretically homogeneous with symmetrical HPLC elution profiles and had the highest constant specific activity. Their activity was established both by the standard A340 assay using ethanol and using substrates IA and IIA under conditions described herein, but in the absence of serum.
After the residual background reaction was recorded, a purified ADH isozyme prepared as described in Example 1 was then added and the rate measured as described in part 8 of Example 1. All measurements were made in triplicate.

[2] = Specific activity of purified ADH isozymes in ethanol oxidation assay; assay type: biochemical
Description: The isozymes used as primary standards were homogeneous based on SDS-polyacrylamide, urea-polyacrylamide and starch gel electrophoresis as described above. […] Using ethanol as substrate in a conventional ADH assay as described in part 8 of this Example, the specific activity of each purified ADH isozyme was established by monitoring NADH production by the change in absorbance at 340 nm on a Cary 219 spectrophotometer calibrated with potassium chromate absorbance standards (Fisher Chem. Co., Medford, MA) The activity of the purified ADH Class I isozymes were also assayed according to methods of the present invention (Examples 1 (part 8), 2 and 4).
A modification of the procedure of Ditlow et al., 1984, Biochemistry 23:6363-68, was used to purify Class II ADH from human livers proceeding from the preparation of Class I isozymes as described in subpart (a) above. The effluent of the CapGapp column obtained during the loading and binding of Class I was concentrated to about 200 ml in an Amicon concentrator with a PM.30 membrane and dialyzed 16 hours against 10 liters of 10 mM potassium phosphate, 0.1 mM DTT, pH 7.4 containing 10 μM octanal. The sample was applied to a column (3×5 cm) of agarose-AMP affinity resin at a flow rate of 0.5 ml/minute followed by washing of the column with 200 ml of the dialysis buffer. The bound enzyme was eluted with 150 ml of the dialysis buffer with a gradient of NADH from 0 to 66 μg/ml.
Standard assays for ethanol oxidation activity (Dalziel, 1957, Acta Chem Scand 11:1706-23) were carried out on a Cary 219 spectrophotometer interfaced with an Apple IIe microcomputer, using software provided by Varian Associates. The reaction mixture contained 2.5 mM NAD^+ in 0.1M glycine-NaOH buffer. pH 10.0, and 33 mM or 0.2M ethanol for Class I and Class II ADH, respectively.

[3] = Effect of storage conditions and time on ADH activity in serum; assay type: physicochemical, human
Protocol: Fresh serum samples were obtained from the Clinical Chemistry Laboratory at Brigham and Women's Hospital, Boston, Mass. All serum measurements reported herein were performed within 5 hours of phlebotomy unless otherwise indicated On storage there is considerable variation in the ADH activity of serum samples from the same and different patients. FIGS. 5A and 5B show the effect of storage at 4° C. (closed circles) and room temperature (closed squares) in a typical serum sample, using substrate IA (FIG. 5A) and substrate IIA (FIG. 5B) as measured by the four-assay procedure of Example 4.

[4] = biological target: ADH in human serum (Class II) (Homo sapiens, UniProt P08319); assay: Fluorometric measurement of serum ADH activity with substrate IIA; assay type: biochemical; conditions: Class II, substrate IIA
Protocol: All reaction mixtures (3 ml total volume) were prepared directly in 1 cm pathlength, 4 ml fluorometric cuvettes by adding 150 μl of the 300 μM substrate solution (e.g substrate IA or IIA) 100 μl of the 1 mM NADH solution (prepared as in part 5 above) and 2.69 ml of assay buffer (0.1M phosphate, pH 7.6). After thermal equilibration (25° C.) for 5 minutes, 60 μl of isozyme sample (either serum or purified ADH isozymes) was added to the cuvette.
The linear increase of fluorescence was then recorded for 1-10 minutes, until 0.03-1 μM of substrate was consumed. Larger substrate consumption was not found to be desirable (described in subpart (c) below). […] The added product fluorescence intensity was then measured Fluorescence measurements were optimized for samples with low activity (<1 nM/minute). […] Rates measured in the presence of the 0.2 mM ADH inhibitors. […]
The rates of aldehyde reduction, determined as initial velocities (V) and expressed in units of nM/minute, were calculated according to: [formula] where the quantity in parentheses is the slope of the linear fluorescence increase calculated from the quantities Ft and FO, the fluorescence at time t and at the beginning of the reaction, respectively. Cst is the concentration of the product used as a standard added to the cuvette after the initial rate had been measured and Fst is the fluorescence intensity of the added product […]

Row | limit of detection as isozyme concentration [4] [nM] | Molecule | Recovery [1] | specific activity ([2]; purified Class II ADH) [U/mg] | Average Activity Retained ([3]; 4 °C, 2 days) [%] | Average Activity Retained ([3]; 23 °C, 1 day) [%] | Average Activity Retained ([3]; 23 °C, 2 days) [%] | stability of activity in serum ([3]; -70° C.) | Average Activity Retained ([3]; -70 °C, 30 days) [%] | half-life of ADH activity in sera ([3]; room temperature) | specific activity ([2]; ethanol oxidation, pH 10) [U/mg]
1 | 0.17 | B1 | 82.0% and 83.4% and 85.9% and 81.3% | 1.5 | 55 | 66 | 51 | at least one month | 100 | a few hours to >3 days | 
2 |  | B2 |  |  |  |  |  |  |  |  | 4.4
3 |  | B3 |  |  |  |  |  |  |  |  | 0.42
